Reference: article PMC5660092

Target: Bcl-2 (UniProt P10415)
Assay: co-IP of Flag-Beclin 1
Details: reference: wild type; sites S90

## Beclin 1 (from UniProt Q14457) S90A
  binding against the reference: stronger
